The target in this experiment is T1, pro-caspase-8 (human (endogenous in HCT116), UniProt Q14790 1-479).
T1 construct: caspase-8, human, endogenous in HCT116 colon cancer cells; Precipitated with a caspase-8 antibody (IP-Cas-8); also called Cas-8; source: endogenous, HCT116 (WT or caspase-3 knockout) whole cell lysate
Nature of the experiment: co-IP; IP with caspase-8 antibody (IP-Cas-8) from lysates of HCT116 WT or C3KO cells treated with DMSO or 5-FU (50 μg/ml) for 24 h; also with z-VAD (20 μM) and with or without glutathione (GSH, 10 μM); blots quantified (Supplementary Tables S2, S3). The note with it: partners not purified.

T1 sequence (Q14790 whole entry): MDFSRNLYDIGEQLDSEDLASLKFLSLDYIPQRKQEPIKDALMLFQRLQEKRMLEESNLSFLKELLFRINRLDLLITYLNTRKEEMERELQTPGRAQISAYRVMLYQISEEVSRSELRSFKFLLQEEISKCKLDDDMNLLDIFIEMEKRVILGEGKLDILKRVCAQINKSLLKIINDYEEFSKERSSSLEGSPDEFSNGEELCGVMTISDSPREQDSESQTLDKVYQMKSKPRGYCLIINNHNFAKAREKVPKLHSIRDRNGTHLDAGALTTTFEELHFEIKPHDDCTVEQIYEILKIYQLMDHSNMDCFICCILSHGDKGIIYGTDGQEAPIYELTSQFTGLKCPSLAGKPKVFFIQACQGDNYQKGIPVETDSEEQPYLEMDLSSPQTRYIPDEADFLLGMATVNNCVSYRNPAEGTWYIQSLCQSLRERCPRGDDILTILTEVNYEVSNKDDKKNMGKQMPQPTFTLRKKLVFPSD

B1: Fas (TNFRSF6)-associated via death domain (natural protein, human (endogenous in HCT116), UniProt Q13158 1-208, looked up)
chain: MDPFLVLLHSVSSSLSSSELTELKFLCLGRVGKRKLERVQSGLDLFSMLLEQNDLEPGHTELLRELLASLRRHDLLRRVDDFEAGAAAGAAPGEEDLCAAFNVICDNVGKDWRRLARQLKVSDTKIDSIEDRYPRNLTERVRESLRIWKNTEKENATVAHLVGALRSCQMNLVADLVQEVQQARDLQNRSGAMSPMSWNSDASTSEAS
notes: FADD, human, endogenous in HCT116 colon cancer cells; also called FADD; source: endogenous, HCT116 (WT or caspase-3 knockout) whole cell lysate
As to B1, the “quantified 5-FU-induced FADD in the complex (C3KO cells, without z-VAD; FADD term of the FADD to RIP1 ratio)” value turned out to be 1.82 and the “quantified 5-FU-induced FADD in the complex (with z-VAD; FADD term of the FADD to RIP1 ratio)” value amounted to 7.5.

B2: receptor (TNFRSF)-interacting serine-threonine kinase 1 (natural protein, human (endogenous in HCT116), UniProt Q13546 1-671, looked up)
chain: MQPDMSLNVIKMKSSDFLESAELDSGGFGKVSLCFHRTQGLMIMKTVYKGPNCIEHNEALLEEAKMMNRLRHSRVVKLLGVIIEEGKYSLVMEYMEKGNLMHVLKAEMSTPLSVKGRIILEIIEGMCYLHGKGVIHKDLKPENILVDNDFHIKIADLGLASFKMWSKLNNEEHNELREVDGTAKKNGGTLYYMAPEHLNDVNAKPTEKSDVYSFAVVLWAIFANKEPYENAICEQQLIMCIKSGNRPDVDDITEYCPREIISLMKLCWEANPEARPTFPGIEEKFRPFYLSQLEESVEEDVKSLKKEYSNENAVVKRMQSLQLDCVAVPSSRSNSATEQPGSLHSSQGLGMGPVEESWFAPSLEHPQEENEPSLQSKLQDEANYHLYGSRMDRQTKQQPRQNVAYNREEERRRRVSHDPFAQQRPYENFQNTEGKGTAYSSAASHGNAVHQPSGLTSQPQVLYQNNGLYSSHGFGTRPLDPGTAGPRVWYRPIPSHMPSLHNIPVPETNYLGNTPTMPFSSLPPTDESIKYTIYNSTGIQIGAYNYMEIGGTSSSLLDSTNTNFKEEPAAKYQAIFDNTTSLTDKHLDPIRENLGKHWKNCARKLGFTQSQIDEIDHDYERDGLKEKVYQMLQKWVMREGIKGATVGKLAQALHQCSRIDLLSSLIYVSQN
notes: also called RIP1; RIP; source: endogenous, HCT116 (WT or caspase-3 knockout) whole cell lysate
Take B2: the “quantified 5-FU-induced RIP1 in the complex (with z-VAD; RIP1 term of the FADD to RIP1 ratio)” value turned out to be 7.3.

Values taken from paper PMC4650537, “Loss of Caspase-3 sensitizes colon cancer cells to genotoxic stress via RIP1-dependent necrosis” (Cell Death & Disease, 2015).
